In patent publication US20100286027A1, “ANTI-BACTERIAL COMPOSITIONS” (priority 2008, published 2010):
≈ marks a conversion by molar mass, not a printed value.

How the values were obtained:
[1] = tested on: Bacteroides fragilis NB85001; experiment: MIC against anaerobic bacteria; assay type: cell-based; conditions: read-out: minimal inhibitory concentration (MIC)
[2] = tested on: Prevotella intermedia NB88001; experiment: MIC against anaerobic bacteria; assay type: cell-based; conditions: read-out: minimal inhibitory concentration (MIC)
[3] = tested on: Eubacterium lentum NB94001; experiment: MIC against anaerobic bacteria; assay type: cell-based; conditions: read-out: minimal inhibitory concentration (MIC)
[4] = tested on: Peptostreptococcus anaerobius NB97001; experiment: MIC against anaerobic bacteria; assay type: cell-based; conditions: read-out: minimal inhibitory concentration (MIC)
[5] = tested on: Propionibacterium acnes NB99001; experiment: MIC against anaerobic bacteria; assay type: cell-based; conditions: Cutibacterium acnes, read-out: minimal inhibitory concentration (MIC)
[6] = tested on: Listeria monocytogenes (7644); experiment: BacTiter-Glo bacterial ATP content viability assay
[7] = tested on: Bacillus Subtilis (6633); experiment: BacTiter-Glo bacterial ATP content viability assay; conditions: for B. subtilis viability by ATP-coupled luminescence assay: FIG. 12, full length protein
[8] = tested on: Enterococcus faecalis (29212); experiment: BacTiter-Glo bacterial ATP content viability assay; conditions: for E. faecals viability by ATP-coupled luminescence assay: FIG. 12, full length protein
[9] = tested on: Staphylococcus aureus (29213); experiment: BacTiter-Glo bacterial ATP content viability assay; conditions: for S. aureus viability by ATP-coupled luminescence assay: FIG. 12, full length protein
[10] = tested on: S. maltophilia; experiment: Bacterial growth inhibition (FIG. 15); assay type: cell-based, Stenotrophomonas maltophilia; conditions: FIG. 15 Panel A
[11] = tested on: E. coli NB27005* (TolC efflux pump mutant); experiment: MIC against aerobic gram negative bacteria, efflux pump mutant; assay type: cell-based, Escherichia coli; conditions: aerobic gram negative; E. coli NB27005*, TolC efflux pump mutant strain
[12] = tested on: H. influenzae NB65027-CDS0021* (TolC efflux pump mutant); experiment: as above; assay type: cell-based, Haemophilus influenzae; conditions: aerobic gram negative; H. influenzae NB65027-CDS0021*, TolC efflux pump mutant strain
[13] = tested on: L. monocytogenes; experiment: Bacterial growth inhibition (FIG. 15); assay type: cell-based, Listeria monocytogenes; conditions: FIG. 15 Panel C
[14] = tested on: lawn of the indicated bacteria; experiment: Agar diffusion assay; conditions: FIG. 11 Panel D; 0.5 mg/ml in sterile PBS per well
[15] = tested on: Streptococcus pneumoniae (49619); experiment: BacTiter-Glo bacterial ATP content viability assay; conditions: gram +, +/− SD, n = 3, >100 = activity detected but <50% inhibition
[16] = tested on: Escherichia coli (8739); experiment: BacTiter-Glo bacterial ATP content viability assay; conditions: gram −, +/− SD, n = 3, >100 = activity detected but <50% inhibition
[17] = tested on: Escherichia coli (25922); experiment: BacTiter-Glo bacterial ATP content viability assay; conditions: gram −, +/− SD, n = 3, >100 = activity detected but <50% inhibition
[18] = tested on: Klebsiella pneumoniae (700603); experiment: BacTiter-Glo bacterial ATP content viability assay; conditions: gram −, +/− SD, n = 3, >100 = activity detected but <50% inhibition
[19] = tested on: Pseudomonas aeruginosa (27853); experiment: BacTiter-Glo bacterial ATP content viability assay; conditions: gram −, +/− SD, n = 3, >100 = activity detected but <50% inhibition
[20] = tested on: Salmonella choleraesuis (13076); experiment: BacTiter-Glo bacterial ATP content viability assay; conditions: gram −, +/− SD, n = 3, >100 = activity detected but <50% inhibition
[21] = tested on: Stenotrophomonas maltophilia (17666); experiment: BacTiter-Glo bacterial ATP content viability assay; conditions: gram −, +/− SD, n = 3, >100 = activity detected but <50% inhibition
[22] = tested on: Streptococcus pneumoniae (ATCC 49619); experiment: Gentamycin protection assay in stable 293 cell lines; conditions: 293 cells stably expressing the protein, infected with S. pneumoniae at MOI 10:1, versus control cells
[23] = FIG. 10, 5×10^5 bacteria/100 μl, increasing concentrations, 6 hours at 37° C., relative to controls

Question: What does the source list for O=C(O)c1cn(C2CC2)c2cc(N3CCNCC3)c(F)cc2c1=O [Ciprofloxacin, reference compound]?
Answer: MIC [1]: 8 mg/L (≈ 24.1 µM); MIC [2]: 1 mg/L (≈ 3.02 µM); MIC [3]: 2 mg/L (≈ 6.04 µM); MIC [4]: 1 mg/L (≈ 3.02 µM); MIC [5]: 1 mg/L (≈ 3.02 µM)

Question: “TLR2: recombinant LRR domain of Toll-like receptor 2; human TLR2-LRR is SEQ ID NO: 6” was tested. Which “L. monocytogenes viability by ATP-coupled luminescence assay” value (“L. monocytogenes viability” below) [6, 23] did it give?
Answer: inhibit

Question: With “G908R: full length Nod2 protein carrying the Crohn's-associated G908R mutation” as the molecule, how does the “L. monocytogenes viability” value ([6]; FIG. 12, full length protein) read?
Answer: deficient

Question: What about the “B. subtilis viability by ATP-coupled luminescence assay” value [7] of the same molecule?
Answer: deficient

Question: And the “E. faecals viability by ATP-coupled luminescence assay” value [8]?
Answer: deficient

Question: And the “S. aureus viability by ATP-coupled luminescence assay” value [9]?
Answer: deficient

B1: NAIP: Neuronal apoptosis inhibitor protein, an LRR protein (protein, UniProt Q13075 1-1403, looked up)
Baculoviral IAP …: MATQQKASDERISQFDHNLLPELSALLGLDAVQLAKELEEEEQKERAKMQKGYNSQMRSEAKRLKTFVTYEPYSSWIPQEMAAAGFYFTGVKSGIQCFCCSLILFGAGLTRLPIEDHKRFHPDCGFLLNKDVGNIAKYDIRVKNLKSRLRGGKMRYQEEEARLASFRNWPFYVQGISPCVLSEAGFVFTGKQDTVQCFSCGGCLGNWEEGDDPWKEHAKWFPKCEFLRSKKSSEEITQYIQSYKGFVDITGEHFVNSWVQRELPMASAYCNDSIFAYEELRLDSFKDWPRESAVGVAALAKAGLFYTGIKDIVQCFSCGGCLEKWQEGDDPLDDHTRCFPNCPFLQNMKSSAEVTPDLQSRGELCELLETTSESNLEDSIAVGPIVPEMAQGEAQWFQEAKNLNEQLRAAYTSASFRHMSLLDISSDLATDHLLGCDLSIASKHISKPVQEPLVLPEVFGNLNSVMCVEGEAGSGKTVLLKKIAFLWASGCCPLLNRFQLVFYLSLSSTRPDEGLASIICDQLLEKEGSVTEMCVRNIIQQLKNQVLFLLDDYKEICSIPQVIGKLIQKNHLSRTCLLIAVRTNRARDIRRYLETILEIKAFPFYNTVCILRKLFSHNMTRLRKFMVYFGKNQSLQKIQKTPLFVAAICAHWFQYPFDPSFDDVAVFKSYMERLSLRNKATAEILKATVSSCGELALKGFFSCCFEFNDDDLAEAGVDEDEDLTMCLMSKFTAQRLRPFYRFLSPAFQEFLAGMRLIELLDSDRQEHQDLGLYHLKQINSPMMTVSAYNNFLNYVSSLPSTKAGPKIVSHLLHLVDNKESLENISENDDYLKHQPEISLQMQLLRGLWQICPQAYFSMVSEHLLVLALKTAYQSNTVAACSPFVLQFLQGRTLTLGALNLQYFFDHPESLSLLRSIHFPIRGNKTSPRAHFSVLETCFDKSQVPTIDQDYASAFEPMNEWERNLAEKEDNVKSYMDMQRRASPDLSTGYWKLSPKQYKIPCLEVDVNDIDVVGQDMLEILMTVFSASQRIELHLNHSRGFIESIRPALELSKASVTKCSISKLELSAAEQELLLTLPSLESLEVSGTIQSQDQIFPNLDKFLCLKELSVDLEGNINVFSVIPEEFPNFHHMEKLLIQISAEYDPSKLVKLIQNSPNLHVFHLKCNFFSDFGSLMTMLVSCKKLTEIKFSDSFFQAVPFVASLPNFISLKILNLEGQQFPDEETSEKFAYILGSLSNLEELILPTGDGIYRVAKLIIQQCQQLHCLRVLSFFKTLNDDSVVEIAKVAISGGFQKLENLKLSINHKITEEGYRNFFQALDNMPNLQELDISRHFTECIKAQATTVKSLSQCVLRLPRLIRLNMLSWLLDADDIALLNVMKERHPQSKYLTILQKWILPFSPIIQK
Question: Which “growth of S. maltophilia” value [10] does the source give for B1 here?
Answer: inhibited the growth

B2: Nalp3: recombinant LRR domain of Nalp3; human Nalp3-LRR is SEQ ID NO: 7 (protein, listed as Homo sapiens)
chain: MVQCVLPSSSHAACSHGLVNSHLTSSFCRGLFSVLSTSQSLTELDLSDNSLGDPGMRVLCETLQHPGCNIRRLWLGRCGLSHECCFDISLVLSSNQKLVELDLSDNALGDFGIRLLCVGLKHLLCNLKKLWLVSCCLTSACCQDLASVLSTSHSLTRLYVGENALGDSGVAILCEKAKNPQCNLQKLGLVNSGLTSVCCSALSSVLSTNQNLTHLYLRGNTLGDKGIKLLCEGLLHPDCKLQVLELDNCNLTSHCCWDLSTLLTSSQSLRKLSLGNNDLGDLGVMMFCEVLKQQSCLLQNLGLSEMYFNYETKSALETLQEEKPELTVVFEPSW
Question: For B2, which “L. monocytogenes viability” value [6, 23] is on record?
Answer: inhibit

B3: Nod2 3020insC: recombinant LRR domain of the Crohn's-associated 3020insC mutant of Nod2 (deoxycytosine inserted at nucleotide position 3020) (protein)
chain: PAAPGEAKSVHAMPGFIWLIRSLYEMQEERLARKAARGLNVGHLKLTFCSVGPTECAALAFVLQHLRRPVALQLDYNSVGDIGVEQLLPCLGVCKALYLRDNNISDRGICKLIECALHCEQLQKLALFNNKLTDGCAHSMAKLLACRQNFLALRLGNNYITAAGAQVLAEGLRGNTSLQFLGFWGNRVGDEGAQALAEALGDHQSLRWLSLVGNNIGSVGAQALALMLAKNVMLEELCLEENHLQDEGVCSLAEGLKKNSSLKILKLSNNCITYLGAEALLQAP
Question: What does the source list for B3?
Answer: minimal inhibitory concentration (MIC) [11]: >128 microgram/ml; minimal inhibitory concentration (MIC) [12]: 64 microgram/ml; L. monocytogenes growth [13]: inhibited; anti-bacterial activity by agar diffusion assay [14]: not; L. monocytogenes viability by ATP-coupled luminescence assay ([6]; FIG. 12, full length protein): deficient; antibacterial activity by bacterial ATP content (IC50), [LRR domain] ([6]; Listeria monocytogenes (7644), gram +, +/− SD, n = 3, >100 = activity detected but <50% inhibition): 16.5 +/− 13.3 microgram/ml; antibacterial activity by bacterial ATP content (IC50), [LRR domain] ([7]; Bacillus Subtilis (6633), gram +, +/− SD, n = 3, >100 = activity detected but <50% inhibition): 54.0 +/− 20.2 microgram/ml; B. subtilis viability by ATP-coupled luminescence assay [7]: deficient; antibacterial activity by bacterial ATP content (IC50), [LRR domain] ([8]; Enterococcus faecalis (29212), gram +, +/− SD, n = 3, >100 = activity detected but <50% inhibition): None detected; E. faecals viability by ATP-coupled luminescence assay [8]: deficient; S. aureus viability by ATP-coupled luminescence assay [9]: deficient; antibacterial activity by bacterial ATP content (IC50), [LRR domain] ([9]; Staphylococcus aureus (29213), gram +, +/− SD, n = 3, >100 = activity detected but <50% inhibition): None detected; antibacterial activity by bacterial ATP content (IC50), [LRR domain] [15]: None detected; antibacterial activity by bacterial ATP content (IC50), [LRR domain] [16]: None detected; antibacterial activity by bacterial ATP content (IC50), [LRR domain] [17]: None detected; antibacterial activity by bacterial ATP content (IC50), [LRR domain] [18]: None detected; antibacterial activity by bacterial ATP content (IC50), [LRR domain] [19]: None detected; antibacterial activity by bacterial ATP content (IC50), [LRR domain] [20]: None detected; antibacterial activity by bacterial ATP content (IC50), [LRR domain] [21]: None detected; number of gentamycin-protected intracellular bacteria [22]: No obvious protection
